Measurements taken from the supplement of paper PMC9170038.

Test system: MS2 coat protein
Test: apparent KD of MS2 coat protein; higher = weaker reporter binding
Conditions: Eterna round: R107
In short: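 Apparent KD stands for the median, per design, of fits to normalised cluster binding curves. The curves came from titrating on-chip-transcribed RNA switches on Illumina sequencing clusters with SNAP-549-labelled MS2 coat protein, twofold from 0.7 or 1.5 nM to 3 µM. Buffer was 100 mM Tris-HCl pH 7.5, 80 mM KCl, 4 mM MgCl2, without or with constant ligand.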

[1] = input ligand: theophylline 20 uM
[2] = input ligand: theophylline 2 mM
[3] = input ligand: tryptophan 2.4 mM

Sequence | apparent KD of MS2 coat protein (input ligand: arginine 13.2 mM) [nM] | apparent KD of MS2 coat protein (input ligand: none) [nM] | apparent KD of MS2 coat protein [1] [nM] | apparent KD of MS2 coat protein [2] [nM] | apparent KD of MS2 coat protein [3] [nM]
GCACAAGAUGGAAGGAGCGCUGGGAAAGGUCACAUGAGGAUCACCCAUGUUCUCCUUGCCGAGCAGGUAGGUCGCCAUCUUGUGC [SSAB NP+V+V2 #2] | 30.4 | 37.8 | 50 | 56.1 | 33.9
GCACAAGAUGGAAGGAGCGCUGGUAACGGUCACAUGAGGAUCACCCAUGUGCUCCUUGCCGAGCAGGUAGGUCGCCAUCUUGUGC [SSAB NP+V+V2 #6 +-Same Structure] | 34.1 | 44.4 | 46.1 | 45.3 | 35.3
GCACAAGAUGGAAGGAGCGCUGGUAGGUGACACAUGAGGAUCACCCAUGUGCUCCUUGCCGAGCAGGUAGGUCGCCAUCUUGUGC [SSAB NP+V+V2 #7] | 21.1 | 27.7 | 40.3 | 36.1 | 25.5
GCACCAGGUACGGAUACCAGACGCUGCCGAUUGGGUGGACAUGAGGAUCACCCAUGUAAUGUCCCUUGGCAGCCGUACCUGGUGC [#17 Exclusion-TheophyllineB] | 13.5 | 13.8 | 38.8 | 200 | 17.8
GCACCAGGUACGGAUACCAGCUGCCACAGUUACAUGAGGAUCACCCAUGUGAUAAAGUGUAGCCCUUGGCAGCUGUACCUGGUGC [SSThB NP+V+V2 #6 +-Same Structure] | 93.2 |  | 69.1 |  | 125
GCACCAGGUACGGAUACCAGCUGCCACGGUUACAUGAGGAUCACCCAUGUGAUAAGGUGUAGCCCUUGGCAGCUGUACCUGGUGC [SSThB NP+V+V2 #7 +-Same Structure] | 96.9 | 142 | 500 | 411 | 258
GCACCAGGUACGGAUACCAGCUGCCAGAGAUACAUGAGGAUCACCCAUGUGACCUGAUUUAGCCCUUGGCAGCUGUACCUGGUGC [SSThB NP+V+V2 #2 Same Structure] | 178 |  | 472 |  | 680
GCACGACAUGAGGAUCACCCAUGUGCAGAUACCAGUAAUGUAUAUUACCCUUGGCAGCUGAGUAGAUCUGGAGGGCUAUAGGUAA [Same State Theophylline A GF10] | 11.5 |  | 18.7 |  | 14.1
GCAUAGUAAAAUGAUACCAGAGUCAAAACAGACAUGAGGAUCACCCAUGUGCAUAUACAACUCCCUUGGCAGCAUUAAAACGGGA [theeternabot_sameState_MS2_Theo_B_28] | 14.2 |  | 18.7 |  | 18.2
GCAUCCUAGUCGGCCGCCACUGGAUGUACCCAGUGCUGGUACAAACAUGAGGAUCACCCAUGUACCAGGACCGGGACUAGGAUGC [(Trp1)-(MT2)''-(T1)'-(MT2)'-(Ms2)-(Trp2)_Design3] | 23.6 | 12.7 | 16.4 | 12.3 | 9.93
GCAUGUUGGUGGUAUCUGCGAAGGCGGAAUCGAGGACCGGUACGGCCGCCACUCGGCGACAUGAGGAUCACCCAUGUGGUUAGGA [Exclusion - Tryptophan A (Freestyle 8)] | 18.6 | 238 | 170 | 658 | 203
GCCAGACAUGAGGAUCACCCAUGUAGCGAUACCAGCUCUGUUGUGAGCCCUUGGCAGCGCACUGGCAUCGCGGGUGAUCCUGCAU [(T)''-(Ms2)-(Theo)-(T)'-(M)'-(M)''_Design3] | 15.1 |  | 137 |  | 33.1
GCCGCGGCCGCGAUACACAUGGGUAUGUAACGAGGACCGGUACGGCCGCCACUCGAGAUAAUGUACAUGAGGAUCACCCAUGUAC [Exclusion Tryp A GF12] | 10.3 |  | 15.1 | 12.8 | 
GCCGCGGCCGCGAUACACAUGGGUGUGUAACGAGGACCGGUACGGCCGCCACUCGAGAUGGUGUACAUGAGGAUCACCCAUGUAC [Exclusion Tryp A GF14] | 10.5 | 14.5 | 21.5 | 17.4 | 13.4
GCGAUACGUACUGAUACCAGAGACAUGAGGAUCACCCAUGUCCCAUGAUCAUACCUCAGACUCCCUUGGCAGCAGGAUAAGUGAG [Exclusion Theophylline B GF2] | 11.3 |  | 15.1 |  | 12
GCGUUGGUCGGAAGGAGCGACAUGAGGAUCACCCAUGUCUCCCGUUAUGGGAGUUCCUUAGGUCAGGUAGGUCGCCGACUGACGC [#1 Exclusion - Arginine B Attempt #20 (Inspired by Omei)] | 96.1 | 209 | 193 | 150 | 143
GCUACAUGAGGAUCACCCAUGUAUGCGAGCCGAGGACCGGUACGGCCGCCACUCGCUUAACAUGAGGAUCACCCAUGUUGCUCGG [SSTA DOUBLE!!! :-D #17] | 38.9 |  | 77.8 | 55.1 | 
